Assay results from patent US20230346919A1.

Molecular target: Spike (S) protein of the SARS-CoV-2 clinical isolate, strain 2019 n-CoV/USA_WA1/2020 (SARS-CoV-2 strain 2019 n-CoV/USA_WA1/2020) (UniProt P0DTC2)
Assay: cell-based or functional assay

Substance	EC50, inhibition of SARS-CoV-2 infection (FRNT, Vero E6 cells)	EC50, neutralization of SARS-CoV-2 (FRNT, Vero E6 cells)
human ACE2-Fc (hACE2 residues 1-615, HRV-3C site, human IgG1 Fc) (from UniProt Q9BYF1 18-615) (Fc fusion)	12.6 µg/mL	–
mAb S309 (antibody)	–	0.081 µg/mL
